Experimental data taken from patent publication US20250002594A1 (SHANGHAI EPIMAB BIOTHERAPEUTICS, published 2025).
Where a chain is given by its changes, count along the chain named.

B1: huFIT2019-86b-32 (bispecific antibody, human IgG1, kappa, L234A L235A)
chain 1: not shown
chain 2: EVQLVQSGAEVKKPGASVKVSCKASGYTFTDYVISWVRQATGQGLEWMGEIYPGDGNTYYNEMFKGRVTMTRDTSISTAYMELSSLRSEDTAVYYCARGSYTYDNYAMDFWGQGTTVTVSSASTKGPSVFPLAPSSKSTSGGTAALGCLVKDYFPEPVTVSWNSGALTSGVHTFPAVLQSSGLYSLSSVVTVPSSSLGTQTYICNVNHKPSNTKVDKKVEPKSC
chain 3: not shown
notes: also called huFIT9-86b-32
B2: huFIT2019-86b-35 (bispecific antibody, human IgG1, kappa, L234A L235A)
chain 1: not shown
chain 2: B1 chain 2
chain 3: not shown
B3: huFIT2019-86b-45 (bispecific antibody, human IgG1, kappa, L234A L235A)
chain 1: not shown
chain 2: B1 chain 2 with G56A, N57Q
chain 3: not shown
B4: huFIT2019-86b-46 (bispecific antibody, human IgG1, kappa, L234A L235A)
chain 1: not shown
chain 2: B1 chain 2 with G56A
chain 3: not shown
B5: huFIT2019-86b-47 (bispecific antibody, human IgG1, kappa, L234A L235A)
chain 1: not shown
chain 2: B1 chain 2 with D55E
chain 3: not shown
B6: huFIT2019-86b-48 (bispecific antibody, human IgG1, kappa, L234A L235A)
chain 1: not shown
chain 2: B1 chain 2
chain 3: not shown
B7: huFIT2019-86b-49 (bispecific antibody, human IgG1, kappa, L234A L235A)
chain 1: not shown
chain 2: B1 chain 2
chain 3: not shown
B8: huFIT2019-86b-50 (bispecific antibody, human IgG1, kappa, L234A L235A)
chain 1: not shown
chain 2: B1 chain 2
chain 3: not shown
B9: huFIT2019-86b-17 (bispecific antibody, human IgG1, kappa, L234A L235A)
chain 1: not shown
chain 2: B1 chain 2 with G56A, N57Q
chain 3: not shown
B10: huFIT2019-86b-11 (bispecific antibody, human IgG1, kappa, L234A L235A)
chain 1: not shown
chain 2: B1 chain 2 with G56A, N57Q
chain 3: not shown
B11: huFIT2019-86b-12 (bispecific antibody, human IgG1, kappa, L234A L235A)
chain 1: not shown
chain 2: B1 chain 2 with G56A, N57Q, R72A
chain 3: not shown
B12: huFIT2019-86b-13 (bispecific antibody, human IgG1, kappa, L234A L235A)
chain 1: not shown
chain 2: B1 chain 2 with T28R, T30S, G56A, N57Q, R72A
chain 3: not shown
B13: huFIT2019-86b-14 (bispecific antibody, human IgG1, kappa, L234A L235A)
chain 1: not shown
chain 2: B1 chain 2 with G56A, N57Q, M70L, R72A
chain 3: not shown
B14: huFIT2019-86b-15 (bispecific antibody, human IgG1, kappa, L234A L235A)
chain 1: not shown
chain 2: B1 chain 2 with R38K, M48I, G56A, N57Q, V68A, M70L, R72A, T74K
chain 3: not shown
B15: huFIT2019-86b-16 (bispecific antibody, human IgG1, kappa, L234A L235A)
chain 1: not shown
chain 2: EVQLVQSGAEVKKPGASVKVSCKASGYRFSDYVISWVKQATGQGLEWIGEIYPGDAQTYYNEMFKGRATLTADKSISTAYMELSSLRSEDTAVYFCARGSYTYDNYAMDFWGQGTTVTVSSASTKGPSVFPLAPSSKSTSGGTAALGCLVKDYFPEPVTVSWNSGALTSGVHTFPAVLQSSGLYSLSSVVTVPSSSLGTQTYICNVNHKPSNTKVDKKVEPKSC
chain 3: not shown
B16: huFIT2019-86b-18 (bispecific antibody, human IgG1, kappa, L234A L235A)
chain 1: not shown
chain 2: B1 chain 2 with G56A, N57Q, R72A
chain 3: not shown
B17: huFIT2019-86b-19 (bispecific antibody, human IgG1, kappa, L234A L235A)
chain 1: not shown
chain 2: B1 chain 2 with T28R, T30S, G56A, N57Q, R72A
chain 3: not shown
B18: huFIT2019-86b-20 (bispecific antibody, human IgG1, kappa, L234A L235A)
chain 1: not shown
chain 2: B1 chain 2 with G56A, N57Q, M70L, R72A
chain 3: not shown
B19: huFIT2019-86b-21 (bispecific antibody, human IgG1, kappa, L234A L235A)
chain 1: not shown
chain 2: B15 chain 2 with R28T, S30T, F95Y
chain 3: not shown
B20: huFIT2019-86b-22 (bispecific antibody, human IgG1, kappa, L234A L235A)
chain 1: not shown
chain 2: B15 chain 2
chain 3: not shown
B21: huFIT2019-86b-23 (bispecific antibody, human IgG1, kappa, L234A L235A)
chain 1: not shown
chain 2: B1 chain 2 with G56A, N57Q
chain 3: not shown
B22: huFIT2019-86b-24 (bispecific antibody, human IgG1, kappa, L234A L235A)
chain 1: not shown
chain 2: B1 chain 2 with G56A, N57Q, R72A
chain 3: not shown
B23: huFIT2019-86b-25 (bispecific antibody, human IgG1, kappa, L234A L235A)
chain 1: not shown
chain 2: B1 chain 2 with T28R, T30S, G56A, N57Q, R72A
chain 3: not shown
B24: huFIT2019-86b-26 (bispecific antibody, human IgG1, kappa, L234A L235A)
chain 1: not shown
chain 2: B1 chain 2 with G56A, N57Q, M70L, R72A
chain 3: not shown
B25: huFIT2019-86b-27 (bispecific antibody, human IgG1, kappa, L234A L235A)
chain 1: not shown
chain 2: B15 chain 2 with R28T, S30T, F95Y
chain 3: not shown
B26: huFIT2019-86b-28 (bispecific antibody, human IgG1, kappa, L234A L235A)
chain 1: not shown
chain 2: B15 chain 2
chain 3: not shown
B27: huFIT2019-86b-29 (bispecific antibody, human IgG1, kappa, L234A L235A)
chain 1: not shown
chain 2: B1 chain 2 with G56A, N57Q
chain 3: not shown
B28: huFIT2019-86b-30 (bispecific antibody, human IgG1, kappa, L234A L235A)
chain 1: not shown
chain 2: B1 chain 2 with G56A, N57Q
chain 3: not shown
B29: huFIT2019-86b-31 (bispecific antibody, human IgG1, kappa, L234A L235A)
chain 1: not shown
chain 2: B1 chain 2 with G56A, N57Q
chain 3: not shown
B30: huFIT2019-86b-33 (bispecific antibody, human IgG1, kappa, L234A L235A)
chain 1: not shown
chain 2: B1 chain 2
chain 3: not shown
B31: huFIT2019-86b-34 (bispecific antibody, human IgG1, kappa, L234A L235A)
chain 1: not shown
chain 2: B1 chain 2
chain 3: not shown
B32: huFIT2019-86b-36 (bispecific antibody, human IgG1, kappa, L234A L235A)
chain 1: not shown
chain 2: B1 chain 2
chain 3: not shown

Target: T1, CD122/CD132 complex on HEK-Blue IL-2 cells (UniProt P14784 27-551; P31785 23-369, limits assumed)
T1 sequence (looked up) 1: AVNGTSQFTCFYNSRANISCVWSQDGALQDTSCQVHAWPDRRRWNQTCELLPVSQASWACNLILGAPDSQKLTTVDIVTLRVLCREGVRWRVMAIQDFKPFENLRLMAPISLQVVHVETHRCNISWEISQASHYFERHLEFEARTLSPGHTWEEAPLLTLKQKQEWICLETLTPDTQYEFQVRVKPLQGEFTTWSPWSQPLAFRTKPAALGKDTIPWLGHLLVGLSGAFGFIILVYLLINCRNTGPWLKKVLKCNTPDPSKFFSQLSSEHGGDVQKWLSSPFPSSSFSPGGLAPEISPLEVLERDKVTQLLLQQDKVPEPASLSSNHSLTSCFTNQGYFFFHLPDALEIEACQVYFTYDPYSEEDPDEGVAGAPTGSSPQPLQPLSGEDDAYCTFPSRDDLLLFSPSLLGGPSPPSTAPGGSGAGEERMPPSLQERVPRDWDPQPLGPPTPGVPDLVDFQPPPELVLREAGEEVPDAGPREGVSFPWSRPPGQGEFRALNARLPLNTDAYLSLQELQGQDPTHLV
T1 sequence (looked up) 2: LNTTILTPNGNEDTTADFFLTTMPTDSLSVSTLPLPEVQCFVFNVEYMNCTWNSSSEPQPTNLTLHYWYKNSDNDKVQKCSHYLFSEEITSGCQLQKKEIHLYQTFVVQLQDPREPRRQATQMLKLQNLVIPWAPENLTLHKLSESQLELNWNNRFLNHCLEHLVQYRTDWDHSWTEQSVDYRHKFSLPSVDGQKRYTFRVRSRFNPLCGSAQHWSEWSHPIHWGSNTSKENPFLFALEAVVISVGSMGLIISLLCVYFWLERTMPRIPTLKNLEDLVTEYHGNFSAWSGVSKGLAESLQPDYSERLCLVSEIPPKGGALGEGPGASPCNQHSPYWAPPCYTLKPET
Test: cell-based or functional assay

Which “EC50 from SEAP reporter gene assay” value does the source give for B1 here?
Its value is 0.163 nM.

Which “EC50 from SEAP reporter gene assay” value does the source give for B2 here?
The value was 0.163 nM.

With B3 as the binder, how does the “EC50 from SEAP reporter gene assay” value read?
Its value is 0.106 nM.

Which “EC50 from SEAP reporter gene assay” value does the source give for B4 here?
The value was 0.119 nM.

For B5, which “EC50 from SEAP reporter gene assay” value is on record?
Its value is 0.121 nM.

How did the “EC50 from SEAP reporter gene assay” value turn out when B6 was run?
Its value is 0.168 nM.

How did the “EC50 from SEAP reporter gene assay” value turn out when B7 was run?
The value was 0.216 nM.

How did the “EC50 from SEAP reporter gene assay” value turn out when B8 was run?
Its value is 0.286 nM.

Target: T2, recombinant human CD122 (human, UniProt P14784 27-239, limits assumed)
T2 construct: also called IL-2Rβ
T2 sequence (looked up): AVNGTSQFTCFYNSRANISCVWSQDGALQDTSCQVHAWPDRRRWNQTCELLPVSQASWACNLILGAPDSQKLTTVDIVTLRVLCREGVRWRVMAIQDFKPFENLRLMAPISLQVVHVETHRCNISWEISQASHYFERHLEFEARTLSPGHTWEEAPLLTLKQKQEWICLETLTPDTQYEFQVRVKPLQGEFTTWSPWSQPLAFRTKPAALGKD
Test: GCI (WAVEsystem)
Method: (§1) Binding affinity and kinetics constants of humanized CD122/CD132 FIT-Ig were determined using a label-free biosensor on WAVEsystem (Creoptix AG, Switzerland) by grating-coupled interferometry (GCI). Briefly, a PCP WAVEchip (Creoptix AG) was pre-immobilized with goat anti-human IgG Fc antibody to a density of 3830 pg/mm² by amine coupling, and used to capture humanized CD122/CD132 FIT-Ig generated from Example 3.2.1 to a density of ˜90 pg/mm², then exposed to recombinant human/cyno CD122 or CD132 serially diluted (3× dilutions from 200 nM to […] for human CD122, human CD132 and cyno CD132, respectively; and from 1000 nM to 1.37 nM for cyno CD122) in 1X HBS-EP+ buffer (Cytiva, Cat No. BR100669) by injection at 60 μL/min for 250s to assess association, followed by 1200s dissociation. After each round of association and dissociation, WAVEchip surface was regenerated by subject to pH 1.5 Glycine-HCl buffer injection at 60 μL/min for 120s. Sensorgrams were recorded at 25° C., the data were analyzed on WAVEcontrol (Creoptix AG) and double referenced by subtracting the signals from blank injections and the reference channel. A Langmuir 1:1 model was used for data fitting.

Does B9 bind?
Result: binds

Does B10 bind?
Result: binds

Does B11 bind?
Result: binds

Does B12 bind?
Result: binds

Does B13 bind?
Result: binds

Does B14 bind?
Result: binds

Does B15 bind?
Result: binds

Does B16 bind?
Result: binds

Does B17 bind?
Result: binds

Does B18 bind?
Result: binds

Does B19 bind?
Result: binds

Does B20 bind?
Result: binds

Does B21 bind?
Result: binds

Does B22 bind?
Result: binds

Does B23 bind?
Result: binds

Does B24 bind?
Result: binds

Does B25 bind?
Result: binds

Does B26 bind?
Result: binds

Does B27 bind?
Result: binds

Does B28 bind?
Result: binds

Does B29 bind?
Result: binds

Does B30 bind?
Result: binds

Does B31 bind?
Result: binds

Does B32 bind?
Result: binds

Target: T3, recombinant human CD132 (human, UniProt P31785 23-262, limits assumed)
T3 construct: also called IL-2Rγ
T3 sequence (looked up): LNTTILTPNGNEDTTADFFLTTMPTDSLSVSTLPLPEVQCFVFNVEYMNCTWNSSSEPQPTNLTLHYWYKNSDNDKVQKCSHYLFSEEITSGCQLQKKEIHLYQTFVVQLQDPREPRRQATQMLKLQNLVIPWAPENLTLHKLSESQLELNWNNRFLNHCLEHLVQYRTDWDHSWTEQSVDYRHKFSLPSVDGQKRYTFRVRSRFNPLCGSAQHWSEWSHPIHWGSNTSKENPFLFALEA
Test: GCI (WAVEsystem)
Method: as §1

Does B9 bind?
Result: binds

Does B10 bind?
Result: binds

Does B11 bind?
Result: binds

Does B12 bind?
Result: binds

Does B13 bind?
Result: binds

Does B14 bind?
Result: binds

Does B15 bind?
Result: binds

Does B16 bind?
Result: binds

Does B17 bind?
Result: binds

Does B18 bind?
Result: binds

Does B19 bind?
Result: binds

Does B20 bind?
Result: binds

Does B21 bind?
Result: binds

Does B22 bind?
Result: binds

Does B23 bind?
Result: binds

Does B24 bind?
Result: binds

Does B25 bind?
Result: binds

Does B26 bind?
Result: binds

Does B27 bind?
Result: binds

Does B28 bind?
Result: binds

Does B29 bind?
Result: binds

Does B1 bind?
Result: binds

Does B30 bind?
Result: binds

Does B31 bind?
Result: binds

Does B2 bind?
Result: binds

Does B32 bind?
Result: binds

Does B3 bind?
Result: binds

Does B4 bind?
Result: binds

Does B5 bind?
Result: binds

Does B6 bind?
Result: binds

Does B7 bind?
Result: binds

Does B8 bind?
Result: binds
